# Test results from PMC2756588.
# T1: Myo5, Q04439
# T1 sequence (Q04439 1072-1160, looked up): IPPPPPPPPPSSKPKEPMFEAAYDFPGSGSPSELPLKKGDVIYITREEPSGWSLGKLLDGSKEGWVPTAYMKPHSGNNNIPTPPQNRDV
# T2: Nbp2, Q12163
# T2 sequence (Q12163 103-180, looked up): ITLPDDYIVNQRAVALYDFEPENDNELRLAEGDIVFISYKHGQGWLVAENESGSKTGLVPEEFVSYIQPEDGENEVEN
# T3: Cyk3, Q07533
# T3 sequence (Q07533 1-83, looked up): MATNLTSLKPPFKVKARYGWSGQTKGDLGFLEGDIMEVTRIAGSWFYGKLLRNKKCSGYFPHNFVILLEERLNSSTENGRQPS
# T4: Bzz1-1, P38822
# T4 sequence (P38822 478-572, looked up): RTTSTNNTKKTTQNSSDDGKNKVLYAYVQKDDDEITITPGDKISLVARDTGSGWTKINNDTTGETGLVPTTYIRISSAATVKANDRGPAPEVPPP
# T5: Pex13, P80667
# T5 sequence (P80667 295-386, looked up): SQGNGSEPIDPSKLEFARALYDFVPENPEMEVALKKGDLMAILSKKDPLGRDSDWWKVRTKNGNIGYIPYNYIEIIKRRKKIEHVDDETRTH
# T6: Bud14, P27637
# T6 sequence (P27637 247-328, looked up): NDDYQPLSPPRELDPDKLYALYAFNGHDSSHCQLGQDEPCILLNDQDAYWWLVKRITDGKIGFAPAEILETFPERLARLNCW
# T7: Sla1-3, P32790
# T7 sequence (P32790 344-424, looked up): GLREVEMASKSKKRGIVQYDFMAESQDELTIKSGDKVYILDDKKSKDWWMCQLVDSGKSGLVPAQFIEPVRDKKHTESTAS
# T8: Lsb1, P53281
# T8 sequence (P53281 45-122, looked up): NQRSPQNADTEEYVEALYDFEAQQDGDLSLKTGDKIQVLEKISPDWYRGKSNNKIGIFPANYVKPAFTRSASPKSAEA
# T9: Hof1, Q05080
# T9 sequence (Q05080 590-669, looked up): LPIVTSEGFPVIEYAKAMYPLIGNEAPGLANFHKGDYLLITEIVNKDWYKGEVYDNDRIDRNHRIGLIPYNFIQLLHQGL
# T10: Sla1-2, P32790
# T10 sequence (P32790 60-140, looked up): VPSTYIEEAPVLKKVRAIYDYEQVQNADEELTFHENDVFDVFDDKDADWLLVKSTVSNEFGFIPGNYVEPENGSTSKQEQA
# T11: Bbc1, P47068
# T11 sequence (P47068 1-78, looked up): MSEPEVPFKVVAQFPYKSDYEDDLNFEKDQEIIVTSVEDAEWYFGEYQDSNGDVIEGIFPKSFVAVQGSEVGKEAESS
# T12: Boi2, P39969
# T12 sequence (P39969 32-116, looked up): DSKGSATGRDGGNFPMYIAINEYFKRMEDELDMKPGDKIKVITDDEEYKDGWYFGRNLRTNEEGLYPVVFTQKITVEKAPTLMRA
# T13: Pin3, Q06449
# T13 sequence (Q06449 53-122, looked up): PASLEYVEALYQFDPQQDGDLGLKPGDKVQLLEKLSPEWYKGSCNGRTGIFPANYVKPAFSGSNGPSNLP
# T14: Lsb3, P43603
# T14 sequence (P43603 385-451, looked up): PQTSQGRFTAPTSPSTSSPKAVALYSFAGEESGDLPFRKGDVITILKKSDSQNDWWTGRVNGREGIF
# T15: Boi1, P38041
# T15 sequence (P38041 1-86, looked up): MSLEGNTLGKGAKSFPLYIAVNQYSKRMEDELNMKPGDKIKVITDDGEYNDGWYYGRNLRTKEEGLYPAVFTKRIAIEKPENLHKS
# T16: Hse1, P38753
# T16 sequence (P38753 208-285, looked up): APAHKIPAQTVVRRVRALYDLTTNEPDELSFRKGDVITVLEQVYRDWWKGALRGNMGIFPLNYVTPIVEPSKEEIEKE
# T17: Cdc25, P04821
# T17 sequence (P04821 50-136, looked up): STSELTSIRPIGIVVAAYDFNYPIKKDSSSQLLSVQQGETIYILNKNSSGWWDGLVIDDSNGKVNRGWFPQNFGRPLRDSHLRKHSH
# T18: Abp1, P15891
# T18 sequence (P15891 535-592, looked up): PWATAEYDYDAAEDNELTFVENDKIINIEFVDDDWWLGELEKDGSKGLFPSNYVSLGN
# T19: Bzz1-2, P38822
# T19 sequence (P38822 568-633, looked up): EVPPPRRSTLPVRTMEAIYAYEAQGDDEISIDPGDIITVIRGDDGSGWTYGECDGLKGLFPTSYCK
# T20: Lsb4, P32793
# T20 sequence (P32793 402-468, looked up): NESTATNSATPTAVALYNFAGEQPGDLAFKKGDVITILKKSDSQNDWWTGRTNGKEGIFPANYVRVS
# T21: Fus1, P11710
# T21 sequence (P11710 432-512, looked up): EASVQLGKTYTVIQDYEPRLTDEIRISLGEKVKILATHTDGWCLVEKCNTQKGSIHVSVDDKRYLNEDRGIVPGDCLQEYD
# B1: unnamed (peptide)
# chain: LLGRKRPVMERVVDI
# B2: unnamed (peptide)
# chain: LLRRTIPKRPFYHVL
# B3: unnamed (peptide)
# chain: FFRRSELYLPNSSKA
# Molecular target: T1, Myo5, Q04439
# Assay: SPOT array
# Conditions: median of control spots 471
row,SPOT intensity,Binder
1,6,B1
2,0,B2
3,0,B3

# Molecular target: T2, Nbp2, Q12163
# Assay: SPOT array
# Conditions: median of control spots 357
row,SPOT intensity,Binder
1,0,B1
2,100,B2
3,14,B3

# Molecular target: T3, Cyk3, Q07533
# Assay: SPOT array
# Conditions: median of control spots 1451
row,SPOT intensity,Binder
1,0,B1
2,0,B2
3,0,B3

# Molecular target: T4, Bzz1-1, P38822
# Assay: SPOT array
# Conditions: median of control spots 4446
row,SPOT intensity,Binder
1,0,B1
2,0,B2
3,1,B3

# Molecular target: Rvs167, P39743
# Assay: SPOT array
# Conditions: median of control spots 2707
# Chain of Rvs167, P39743 (P39743 419-482): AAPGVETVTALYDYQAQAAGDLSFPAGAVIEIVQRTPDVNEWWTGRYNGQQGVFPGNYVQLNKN
row,SPOT intensity,Binder
1,5,B1
2,31,B2
3,5,B3

# Molecular target: T5, Pex13, P80667
# Assay: SPOT array
# Conditions: median of control spots 1341
row,SPOT intensity,Binder
1,110,B1
2,12,B2
3,10,B3

# Molecular target: T6, Bud14, P27637
# Assay: SPOT array
# Conditions: median of control spots 956
row,SPOT intensity,Binder
1,3,B1
2,13,B2
3,10,B3

# Molecular target: T7, Sla1-3, P32790
# Assay: SPOT array
# Conditions: median of control spots 5475
row,SPOT intensity,Binder
1,4,B1
2,245,B2
3,53,B3

# Molecular target: Bem1-2, P29366
# Assay: SPOT array
# Conditions: median of control spots 4347
# Chain of Bem1-2, P29366 (P29366 139-227): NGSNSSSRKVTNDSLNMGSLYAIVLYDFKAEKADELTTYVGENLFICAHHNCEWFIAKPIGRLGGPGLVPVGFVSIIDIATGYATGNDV
row,SPOT intensity,Binder
1,0,B1
2,108,B2
3,15,B3

# Molecular target: T8, Lsb1, P53281
# Assay: SPOT array
# Conditions: median of control spots 388
row,SPOT intensity,Binder
1,4,B1
2,139,B2
3,2,B3

# Molecular target: T9, Hof1, Q05080
# Assay: SPOT array
# Conditions: median of control spots 4086
row,SPOT intensity,Binder
1,0,B1
2,52,B2
3,25,B3

# Molecular target: Myo3, P36006
# Assay: SPOT array
# Conditions: median of control spots 468
row,SPOT intensity,Binder
1,10,B1
2,0,B2
3,0,B3

# Molecular target: GST
# Assay: SPOT array
# Conditions: median of control spots 978
row,SPOT intensity,Binder
1,0,B1
2,1,B2
3,0,B3

# Molecular target: T10, Sla1-2, P32790
# Assay: SPOT array
# Conditions: median of control spots 712
row,SPOT intensity,Binder
1,5,B1
2,0,B2
3,0,B3

# Molecular target: T11, Bbc1, P47068
# Assay: SPOT array
# Conditions: median of control spots 796
row,SPOT intensity,Binder
1,1,B1
2,184,B2
3,19,B3

# Molecular target: Bem1-1, P29366
# Assay: SPOT array
# Conditions: median of control spots 4282
# Chain of Bem1-1, P29366 (P29366 55-141): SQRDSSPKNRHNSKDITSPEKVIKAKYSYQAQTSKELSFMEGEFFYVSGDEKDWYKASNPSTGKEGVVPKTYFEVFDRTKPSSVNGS
row,SPOT intensity,Binder
1,0,B1
2,0,B2
3,3,B3

# Molecular target: T12, Boi2, P39969
# Assay: SPOT array
# Conditions: median of control spots 1161
row,SPOT intensity,Binder
1,1,B1
2,2,B2
3,0,B3

# Molecular target: T13, Pin3, Q06449
# Assay: SPOT array
# Conditions: median of control spots 2171
row,SPOT intensity,Binder
1,61,B1
2,0,B2
3,1,B3

# Molecular target: T14, Lsb3, P43603
# Assay: SPOT array
# Conditions: median of control spots 406
row,SPOT intensity,Binder
1,4,B1
2,2,B2
3,0,B3

# Molecular target: T15, Boi1, P38041
# Assay: SPOT array
# Conditions: median of control spots 1162
row,SPOT intensity,Binder
1,0,B1
2,7,B2
3,3,B3

# Molecular target: T16, Hse1, P38753
# Assay: SPOT array
# Conditions: median of control spots 1727
row,SPOT intensity,Binder
1,9,B1
2,43,B2
3,43,B3

# Molecular target: T17, Cdc25, P04821
# Assay: SPOT array
# Conditions: median of control spots 969
row,SPOT intensity,Binder
1,9,B1
2,44,B2
3,115,B3

# Molecular target: T18, Abp1, P15891
# Assay: SPOT array
# Conditions: median of control spots 935
row,SPOT intensity,Binder
1,28,B1
2,18,B2
3,22,B3

# Molecular target: T19, Bzz1-2, P38822
# Assay: SPOT array
# Conditions: median of control spots 4538
row,SPOT intensity,Binder
1,4,B1
2,13,B2
3,5,B3

# Molecular target: T20, Lsb4, P32793
# Assay: SPOT array
# Conditions: median of control spots 397
row,SPOT intensity,Binder
1,27,B1
2,2,B2
3,0,B3

# Molecular target: T21, Fus1, P11710
# Assay: SPOT array
# Conditions: median of control spots 1200
row,SPOT intensity,Binder
1,0,B1
2,14,B2
3,37,B3

# Molecular target: Sho1, P40073
# Assay: SPOT array
# Conditions: median of control spots 1148
# Chain of Sho1, P40073 (P40073 287-367): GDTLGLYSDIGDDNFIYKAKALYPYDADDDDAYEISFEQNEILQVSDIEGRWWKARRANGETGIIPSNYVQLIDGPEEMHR
row,SPOT intensity,Binder
1,74,B1
2,26,B2
3,62,B3
